From PMC9482650, “Quantitative fragmentomics allow affinity mapping of interactomes” (Nature Communications, 2022)

How the values were obtained:
Test in all cases: holdup assay
Set-up in all cases: key: below the threshold = too weak to quantify, mostly under pKd 3.1 to 4
APBA1_1, Q02410 = biological target: T1, APBA1_1, Q02410
T1 sequence (Q02410 651-752, limits assumed, looked up): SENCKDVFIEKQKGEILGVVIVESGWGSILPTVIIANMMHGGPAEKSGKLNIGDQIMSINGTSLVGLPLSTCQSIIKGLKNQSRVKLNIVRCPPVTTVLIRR

ARHGEF12, Q9NZN5-2 = biological target: ARHGEF12, Q9NZN5-2
DLG1_2, Q12959 = biological target: DLG1_2, Q12959
DLG2_3, Q15700 = biological target: DLG2_3, Q15700
DLG5_1, Q8TDM6 = biological target: DLG5_1, Q8TDM6
DVL3, Q92997 = biological target: T2, DVL3, Q92997
T2 sequence (Q92997 244-331, limits assumed, looked up): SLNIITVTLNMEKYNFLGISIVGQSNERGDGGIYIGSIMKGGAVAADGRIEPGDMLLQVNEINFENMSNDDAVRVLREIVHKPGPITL

GRIP1_2, Q9Y3R0 = biological target: T3, GRIP1_2, Q9Y3R0
T3 sequence (Q9Y3R0 145-248, limits assumed, looked up): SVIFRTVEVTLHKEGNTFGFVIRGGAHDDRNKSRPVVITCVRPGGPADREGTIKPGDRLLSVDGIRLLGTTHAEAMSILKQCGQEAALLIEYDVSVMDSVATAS

GRIP2_3, Q9C0E4 = biological target: GRIP2_3, Q9C0E4
HTRA4, P83105 = biological target: T4, HTRA4, P83105
T4 sequence (P83105 378-476, limits assumed, looked up): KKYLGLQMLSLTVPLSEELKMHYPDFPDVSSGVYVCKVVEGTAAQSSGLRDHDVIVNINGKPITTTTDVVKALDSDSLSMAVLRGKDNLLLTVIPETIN

IL16_1, Q14005 = biological target: IL16_1, Q14005
Inadl_10, Q8NI35 = biological target: Inadl_10, Q8NI35
Inadl_8, Q8NI35 = biological target: Inadl_8, Q8NI35
LIMK2, P53671 = biological target: LIMK2, P53671
LIN7C, Q9NUP9 = biological target: T5, LIN7C, Q9NUP9
T5 sequence (Q9NUP9 88-185, limits assumed, looked up): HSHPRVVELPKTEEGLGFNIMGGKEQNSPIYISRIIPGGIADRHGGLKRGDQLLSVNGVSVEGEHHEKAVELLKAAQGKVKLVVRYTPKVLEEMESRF

MAGI2_2, Q86UL8 = biological target: MAGI2_2, Q86UL8
MAGI2_5, Q86UL8 = biological target: MAGI2_5, Q86UL8
MAST2, Q6P0Q8 = biological target: MAST2, Q6P0Q8
NHERF4_1, Q86UT5-2 = biological target: NHERF4_1, Q86UT5-2
NHERF4_4, Q86UT5 = biological target: NHERF4_4, Q86UT5
RAPGEF6, Q8TEU7 = biological target: T6, RAPGEF6, Q8TEU7
T6 sequence (Q8TEU7 525-625, limits assumed, looked up): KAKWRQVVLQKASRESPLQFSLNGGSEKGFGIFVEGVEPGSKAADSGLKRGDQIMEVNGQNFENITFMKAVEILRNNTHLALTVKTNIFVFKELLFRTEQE

RHPN1, Q8TCX5 = biological target: T7, RHPN1, Q8TCX5
T7 sequence (Q8TCX5 508-602, limits assumed, looked up): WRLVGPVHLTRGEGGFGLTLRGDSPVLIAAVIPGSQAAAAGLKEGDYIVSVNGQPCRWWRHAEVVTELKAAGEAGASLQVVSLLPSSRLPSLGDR

SNTA1, Q13424 = biological target: T8, SNTA1, Q13424
T8 sequence (Q13424 82-180, limits assumed, looked up): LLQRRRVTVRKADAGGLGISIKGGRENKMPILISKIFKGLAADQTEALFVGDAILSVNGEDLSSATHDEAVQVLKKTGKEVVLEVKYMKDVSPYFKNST

SNTB1, Q13884 = biological target: T9, SNTB1, Q13884
T9 sequence (Q13884 107-205, limits assumed, looked up): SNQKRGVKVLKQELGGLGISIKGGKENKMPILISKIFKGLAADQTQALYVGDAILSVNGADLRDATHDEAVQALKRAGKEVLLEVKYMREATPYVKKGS

SNTG1, Q9NSN8 = biological target: T10, SNTG1, Q9NSN8
T10 sequence (Q9NSN8 52-150, limits assumed, looked up): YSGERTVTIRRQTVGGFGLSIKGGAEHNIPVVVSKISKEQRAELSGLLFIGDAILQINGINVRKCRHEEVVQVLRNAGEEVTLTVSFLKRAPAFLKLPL

TJP2_1, Q9UDY2 = biological target: TJP2_1, Q9UDY2
TX1BP3, O14907 = biological target: T11, TX1BP3, O14907
T11 sequence (O14907 10-122, limits assumed, looked up): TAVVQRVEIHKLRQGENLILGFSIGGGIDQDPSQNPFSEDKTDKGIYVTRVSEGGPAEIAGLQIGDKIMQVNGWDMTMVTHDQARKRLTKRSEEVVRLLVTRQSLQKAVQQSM

[1] = plain residues with an end cap or a label only (N-terminal biotin on a linker: ttds)
[2] = plain residues with an end cap or a label only (N-terminal biotin on a linker: ado-ado)

Sequence of DLG1_2, Q12959 (Q12959 314-412): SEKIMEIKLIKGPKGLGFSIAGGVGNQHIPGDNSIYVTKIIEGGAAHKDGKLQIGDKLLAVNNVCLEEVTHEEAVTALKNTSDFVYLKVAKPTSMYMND
Sequence of MAGI2_5, Q86UL8 (Q86UL8 915-1017): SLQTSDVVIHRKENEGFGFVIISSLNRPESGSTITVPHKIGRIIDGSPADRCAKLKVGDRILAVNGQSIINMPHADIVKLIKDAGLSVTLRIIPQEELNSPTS
Sequence of DLG5_1, Q8TDM6 (Q8TDM6 617-713): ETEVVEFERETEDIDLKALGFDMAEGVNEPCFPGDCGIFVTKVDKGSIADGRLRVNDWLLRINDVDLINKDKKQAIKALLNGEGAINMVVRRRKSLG
Sequence of Inadl_8, Q8NI35 (Q8NI35 1425-1530): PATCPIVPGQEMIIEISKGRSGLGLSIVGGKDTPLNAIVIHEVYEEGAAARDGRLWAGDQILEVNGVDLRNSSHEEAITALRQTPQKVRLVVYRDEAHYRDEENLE
Sequence of Inadl_10, Q8NI35 (Q8NI35 1673-1763): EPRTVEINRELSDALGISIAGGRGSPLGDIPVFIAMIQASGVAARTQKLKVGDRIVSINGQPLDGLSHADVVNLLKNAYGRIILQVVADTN
Sequence of LIMK2, P53671 (P53671 143-248): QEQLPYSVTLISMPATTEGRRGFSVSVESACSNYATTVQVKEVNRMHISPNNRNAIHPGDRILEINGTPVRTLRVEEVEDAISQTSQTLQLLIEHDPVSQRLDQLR
Sequence of IL16_1, Q14005 (Q14005 210-306): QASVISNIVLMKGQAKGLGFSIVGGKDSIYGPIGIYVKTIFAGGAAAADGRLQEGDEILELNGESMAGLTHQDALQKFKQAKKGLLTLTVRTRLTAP
Sequence of NHERF4_1, Q86UT5-2 (Q86UT5 other isoform, or with tags, fused parts or gaps): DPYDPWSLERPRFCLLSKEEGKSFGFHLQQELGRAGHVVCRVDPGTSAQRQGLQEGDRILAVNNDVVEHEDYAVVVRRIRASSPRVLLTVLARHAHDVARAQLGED
Sequence of TJP2_1, Q9UDY2 (Q9UDY2 24-128): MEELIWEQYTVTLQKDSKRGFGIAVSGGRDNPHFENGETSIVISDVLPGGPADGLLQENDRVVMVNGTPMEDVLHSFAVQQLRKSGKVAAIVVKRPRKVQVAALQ
Sequence of MAST2, Q6P0Q8 (Q6P0Q8 1099-1202): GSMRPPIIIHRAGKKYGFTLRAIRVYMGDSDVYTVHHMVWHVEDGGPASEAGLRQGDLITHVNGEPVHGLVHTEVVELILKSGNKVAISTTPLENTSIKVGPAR
Sequence of ARHGEF12, Q9NZN5-2 (Q9NZN5 other isoform, or with tags, fused parts or gaps): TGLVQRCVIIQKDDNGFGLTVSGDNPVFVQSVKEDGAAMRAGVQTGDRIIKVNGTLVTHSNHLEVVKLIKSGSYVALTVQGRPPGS
Sequence of NHERF4_4, Q86UT5 (Q86UT5 464-550): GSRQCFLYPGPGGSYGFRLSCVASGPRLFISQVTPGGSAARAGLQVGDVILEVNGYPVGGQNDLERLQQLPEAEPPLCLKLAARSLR
Sequence of MAGI2_2, Q86UL8 (Q86UL8 410-522): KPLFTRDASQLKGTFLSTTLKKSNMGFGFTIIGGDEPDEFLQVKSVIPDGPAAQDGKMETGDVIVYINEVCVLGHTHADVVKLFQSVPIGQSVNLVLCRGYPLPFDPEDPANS
Sequence of GRIP2_3, Q9C0E4 (Q9C0E4 238-339): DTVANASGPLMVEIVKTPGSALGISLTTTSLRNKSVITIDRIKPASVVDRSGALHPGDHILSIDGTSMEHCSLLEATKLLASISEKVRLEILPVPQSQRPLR

LDSQIQETSI [MAP4, P27816]
pKd (APBA1_1, Q02410; [1]): below the threshold
pKd (ARHGEF12, Q9NZN5-2; [1]): 4.33
pKd (DLG1_2, Q12959; [1]): 4.37
pKd (DLG2_3, Q15700; [1]): 4.07
pKd (DLG5_1, Q8TDM6; [1]): below the threshold
pKd (DVL3, Q92997; [1]): below the threshold
pKd (GRIP1_2, Q9Y3R0; [1]): below the threshold
pKd (GRIP2_3, Q9C0E4; [1]): below the threshold
pKd (HTRA4, P83105; [1]): below the threshold
pKd (IL16_1, Q14005; [1]): 3.49
pKd (Inadl_10, Q8NI35; [1]): below the threshold
pKd (Inadl_8, Q8NI35; [1]): below the threshold
pKd (LIMK2, P53671; [1]): below the threshold
pKd (LIN7C, Q9NUP9; [1]): 3.68
pKd (MAGI2_2, Q86UL8; [1]): below the threshold
pKd (MAGI2_5, Q86UL8; [1]): 3.5
pKd (MAST2, Q6P0Q8; [1]): 5.97
pKd (NHERF4_1, Q86UT5-2; [1]): below the threshold
pKd (NHERF4_4, Q86UT5; [1]): below the threshold
pKd (RAPGEF6, Q8TEU7; [1]): below the threshold
pKd (RHPN1, Q8TCX5; [1]): 4.94
pKd (SNTA1, Q13424; [1]): 4.8
pKd (SNTB1, Q13884; [1]): 4.93
pKd (SNTG1, Q9NSN8; [1]): 5.31
pKd (TJP2_1, Q9UDY2; [1]): below the threshold
pKd (TX1BP3, O14907; [1]): 3.96

GFGEERESIL [KIDINS220, Q9ULH0]
pKd (APBA1_1, Q02410; [2]): below the threshold
pKd (ARHGEF12, Q9NZN5-2; [2]): 4.13
pKd (DLG1_2, Q12959; [2]): 3.88
pKd (DLG2_3, Q15700; [2]): below the threshold
pKd (DLG5_1, Q8TDM6; [2]): below the threshold
pKd (DVL3, Q92997; [2]): below the threshold
pKd (GRIP1_2, Q9Y3R0; [2]): below the threshold
pKd (GRIP2_3, Q9C0E4; [2]): below the threshold
pKd (HTRA4, P83105; [2]): below the threshold
pKd (IL16_1, Q14005; [2]): 4.48
pKd (Inadl_10, Q8NI35; [2]): below the threshold
pKd (Inadl_8, Q8NI35; [2]): below the threshold
pKd (LIMK2, P53671; [2]): below the threshold
pKd (LIN7C, Q9NUP9; [2]): 3.63
pKd (MAGI2_2, Q86UL8; [2]): below the threshold
pKd (MAGI2_5, Q86UL8; [2]): 4.08
pKd (MAST2, Q6P0Q8; [2]): 5.32
pKd (NHERF4_1, Q86UT5-2; [2]): 3.77
pKd (NHERF4_4, Q86UT5; [2]): below the threshold
pKd (RAPGEF6, Q8TEU7; [2]): below the threshold
pKd (RHPN1, Q8TCX5; [2]): 4.61
pKd (SNTA1, Q13424; [2]): 5.26
pKd (SNTB1, Q13884; [2]): 5.4
pKd (SNTG1, Q9NSN8; [2]): 3.62
pKd (TJP2_1, Q9UDY2; [2]): below the threshold
pKd (TX1BP3, O14907; [2]): 3.73

PKRPFVESNV [TANC2, Q9HCD6]
pKd (APBA1_1, Q02410; [1]): below the threshold
pKd (ARHGEF12, Q9NZN5-2; [1]): below the threshold
pKd (DLG1_2, Q12959; [1]): 4.65
pKd (DLG2_3, Q15700; [1]): 3.86
pKd (DLG5_1, Q8TDM6; [1]): below the threshold
pKd (DVL3, Q92997; [1]): below the threshold
pKd (GRIP1_2, Q9Y3R0; [1]): below the threshold
pKd (GRIP2_3, Q9C0E4; [1]): below the threshold
pKd (HTRA4, P83105; [1]): below the threshold
pKd (IL16_1, Q14005; [1]): 4.66
pKd (Inadl_10, Q8NI35; [1]): below the threshold
pKd (Inadl_8, Q8NI35; [1]): 3.68
pKd (LIMK2, P53671; [1]): below the threshold
pKd (LIN7C, Q9NUP9; [1]): below the threshold
pKd (MAGI2_2, Q86UL8; [1]): below the threshold
pKd (MAGI2_5, Q86UL8; [1]): 3.7
pKd (MAST2, Q6P0Q8; [1]): 4.84
pKd (NHERF4_1, Q86UT5-2; [1]): below the threshold
pKd (NHERF4_4, Q86UT5; [1]): below the threshold
pKd (RAPGEF6, Q8TEU7; [1]): below the threshold
pKd (RHPN1, Q8TCX5; [1]): 4.09
pKd (SNTA1, Q13424; [1]): 4.33
pKd (SNTB1, Q13884; [1]): 4.49
pKd (SNTG1, Q9NSN8; [1]): 4.79
pKd (TJP2_1, Q9UDY2; [1]): below the threshold
pKd (TX1BP3, O14907; [1]): 5.9
